Columns and labels:
WT PRLR cells = assay: Effect of PRLR inhibitors on proliferation of Ba/F3 cells expressing WT PRLR; format: cell-based, murine; details: no PRL, 1% FCS, 3 days
Experimental: Cells were starved for 6 hours in 1% FCS RPMI medium with additives (no PRL), then distributed in 96 well-plates at a density of 5×10^4 cells/well in a final volume of 100 μL. One hundred μL, of [2×] hPRL (and/or antagonist) diluted in the same medium were added after starvation period. Cell survival/proliferation was estimated after 2-3 days of hormonal stimulation by adding 10-20 μL, of WST-1 tetrazolium salt, which is metabolized by living cells ([…] et al., Endocrine, 20, 177-190, 2003). Optical density at 450 nm (OD450) was measured after 1-3 hours of colorimetric reaction using an ELISA plate reader. The experiments were routinely performed at least three times in triplicate or quadruplicate. Proliferation of stable Ba/F3 cell populations was evaluated in poor medium (1% FCS) in the presence of WT hPRL, or of the PRLR antagonist De11-9-G129R-hPRL, or of AG490, for 3 days. The results are illustrated in FIGS. 12 and 13.

mutant I76V = assay: Effect of PRLR inhibitors on proliferation of Ba/F3 cells expressing mutant I76V; format: cell-based, murine; details: 3 days
Experimental: (§1) Cells were starved for 6 hours in 1% FCS RPMI medium with additives (no PRL), then distributed in 96 well-plates at a density of 5×10^4 cells/well in a final volume of 100 μL. One hundred μL, of [2×] hPRL (and/or antagonist) diluted in the same medium were added after starvation period. Cell survival/proliferation was estimated after 2-3 days of hormonal stimulation by adding 10-20 μL, of WST-1 tetrazolium salt, which is metabolized by living cells (BERNICHTEIN et al., Endocrine, 20, 177-190, 2003). Optical density at 450 nm (OD450) was measured after 1-3 hours of colorimetric reaction using an ELISA plate reader. The experiments were routinely performed at least three times in triplicate or quadruplicate.
Proliferation of stable Ba/F3 cell populations was evaluated in poor medium (1% FCS) in the presence of WT hPRL, or of the PRLR antagonist De11-9-G129R-hPRL, or of AG490, for 3 days. The results are illustrated in FIGS. 12 and 13.

hPRL = assay: Binding affinity of WT and mutated PRLR for hPRL, [125I]-hPRL competition with Scatchard analysis, stably transfected HEK 293 cell homogenates; design: species or system human; details: stable HEK 293 clones, overnight at room temperature
Experimental: (§2) Binding affinities of mutated PRLR for hPRL were determined using cell homogenates of stably transfected HEK 293, following a procedure previously described (KINET et al., J Biol Chem, 274, 26033-26043, 1999). Briefly, recombinant hPRL, produced in bacteria E. coli using the pT7L expression vector, and purified as described previously (PARIS et al., Biotechnol Appl Biochem, 12, 436-449, 1990), was iodinated using the Iodogen method, and its specific activity was in the range of 4-5 μCi/μg. Binding assays were performed overnight at room temperature using 150-300 μg cell homogenate protein in the presence of 20,000-30,000 cpm [^125I]-hPRL and increasing concentrations of unlabeled hPRL (competitor). Scatchard analysis was performed to determine the binding affinity of mutated PRLR and the number of PRLR per cell in stable clones or populations.

[1] = system: LHRE-luciferase reporter (Stat5); assay: LHRE-luciferase reporter assay in HEK 293 cells expressing WT or mutated hPRLR; format: cell-based, human
From the text: The human PRLR cDNA inserted into the pc/DNA3 eukaryotic vector (InVitrogen, Carlsbad, Calif.) has been generated as described previously (LOCHNAN et al, Mol Cell Endocrinol 114:91-99, 1995; GOFFIN et al, J Biol Chem 271:16573-16579, 1996). The PRLR-responsive LHRE-luciferase reporter gene carries the sequence encoding the firefly luciferase gene under the control of a 6-repeat sequence of the lactogenic hormone response element (LHRE) followed by the minimal thymidine kinase promoter (GOFFIN et al., J Biol Chem, 271, 16573-16579, 1996). LHRE is the DNA binding element of the signal transducer and activator of transcription Stat5, one of the signaling proteins activated by the PRLR once it is activated (WAKAO et al, EMBO J. 13, 2182-2191, 1994).
Cells were routinely cultured in DMEM medium supplemented with 10% FCS, 2 mM glutamine, 50 U/mL penicillin, 50 μg/mL streptomycin. Cells were co-transfected, using the lipofectamine method with two or three plasmids, one encoding the receptor of interest, one encoding the LHRE-firefly luciferase vector as a reporter of PRLR-mediated a effects, and one encoding the Renilla Luciferase which is expressed in a PRL-independent manner and serves as an internal control of transfection efficiency (DOS SANTOS et al., Nat Genet, 36, 720-724, 2004).
After trypsinization, cells were counted and aliquoted in 96-well plates at a density of 50,000 cells/100 μL/well. Plating medium contained 0.5% FCS to allow cell adhesion. Six to eighteen hours (overnight) after plating, cells were stimulated by addition to each well of 100 μL of PRL (1 μg/ml) diluted in FCS-free medium. After 24 hours of stimulation, culture medium was aspirated and cells were lyzed for at least 10 minutes in 50-100 μL of lysis buffer (Promega). Luciferase activity (only firefly luciferase for stable clones, and both firefly and renilla luciferases for transient transfections) for each experimental condition was counted in 10-20 μL of cell lysates for 10 seconds using a luminometer (Lumat LB 9501, Berthold, Nashua, N.H.). […]

Ba/F3 cells [2] = format: cell-based, murine; details: 1% FCS; for constitutive proliferation / survival: absence of PRL
Experimental: Ba/F3 cells are a pro-B murine cell line dependent on IL-3 for growth. Cells were transfected by electroporation using 5-20 μg of plasmid encoding the WT or mutated human PRLR(CMV promoter), then the populations stably expressing the receptor was selected by several passages in G418-containing medium. Ba/F3-hPRLR cells were routinely maintained in RPMI 1640 medium supplemented with 10% heat-inactivated FCS, 2 mM glutamine, 50 U/mL penicillin, 50 μg/mL streptomycin, 700 μg/mL G-418 (for selection of stably transfected cells), and 10-100 ng/mL WT hPRL instead of IL-3 as the growth factor.
as §1

Ba/F3 cells [3] = assay: Cell cycle / apoptosis of transfected Ba/F3 stable populations by FACS (propidium iodine); format: cell-based, murine; details: minimal medium
From the text: The cell cycle of transfected Ba/F cells (stable populations) was studied by FACS analysis, using propidium iodine labelling as previously described (JEAY et al., Endocrinology 142:147-156, 2001). Cells were put in minimal medium, with or without PRL for the indicated time.

PRLR phosphorylation = assay: PRLR tyrosine phosphorylation by immunoprecipitation and western blot in transfected HEK 293 cells; format: cell-based, human
Experimental: Receptor phosphorylation on tyrosine residues is the first step of PRLR activation.
Transient or stable transfected cells were starved overnight in FCS-free medium before hormonal stimulation. The next day, cells were stimulated (5-30 min at 37° C.) using various concentrations of WT hPRL as indicated. At the end of the stimulation, cells were washed twice with ice-cold saline buffer and cell pellets were kept frozen until used. Cells were solubilized in 0.5-1 ml lysis buffer (30 min under gentle rotation at 4° C.). Lysates were centrifuged for 10 min at 13,000×g, then supernatants were quantified for their protein content by Bradford assay and used for immunoprecipitation.
For immunoprecipitation studies, 0.5-1 mg of total lysate were incubated with anti-human PRLR (anti extracellular domain of the human PRLR, Zymed, clone 1A2B1), used at 1-5 μl/ml. After overnight rotation at 4° C., immune complexes were captured using 20 μl Protein A Sepharose slurry for 1 additional hour rotation at 4° C. Protein A complexes were precipitated by centrifugation, pellets were washed 3 times in lysis buffer and boiled in 15 μl reducing SDS sample buffer for 5 min at 95° C. Finally, immunoprecipitated samples were analysed using 7.5% SDS-PAGE. Electrophoretic transfer onto nitrocellulose membranes (Bio-Rad) was performed as described (LLOVERA et al., Oncogene, 19, 4695-4705, 2000). […]

Stat5 = Stat5 phosphorylation by immunoprecipitation and western blot in Ba/F3 populations; format: cell-based, murine
Experimental: Stat5 is the main PRLR signalling mediator, and a known anti-apoptotic factor in Baf cells. Its phosphorylation was analyzed by immunoprecipitation and western blot, using the protocol described in Example 3 for the analysis of PRLR phosphorylation.
Immunoprecipitation was performed with anti-STAT5 antibodies (c17, SantaCruz). The membranes were incubated with anti-PY antibody (4G10, Upstate), and when required re-incubated with anti-STAT5 (c17, SantaCruz) antibodies.
The results are illustrated by FIG. 16: (−)=no PRL, (+)=0,5 μg/ml PRL.

mutated PRLR = assay: Binding affinity of the PRLR antagonist for mutated and WT PRLR (not shown); design: species or system human
Experimental: as §2
Similarly, the affinity for the pure PRLR antagonist De11-9-G129R-hPRL (BERNICHTEIN et al., J Biol Chem, 278, 35988-35999, 2003) is also identical for the mutants and the receptors (not shown).

Q: With `N#CC(=Cc1ccc(O)c(O)c1)C(=O)NCc1ccccc1` [AG490, N-Benzyl-3,4-dihydroxy-benzylidenecyanoacetamide, reference compound] as the molecule, how does the “effect on basal proliferation of WT PRLR cells” value (WT PRLR cells) read?
A: no effect

Q: And the “inhibition of constitutive activation (proliferation) of mutant I76V” value (mutant I76V; 20 μM AG490, no PRL)?
A: partially inhibited

Q: Which results are given for “wild-type PRLR: wild-type human prolactin receptor (isoform 1), SEQ ID NO: 1, used as control”?
A: Kd (hPRL): 0.64 nM; basal activity (unstimulated cells), luciferase ([1]; no PRL, compared to WT receptor): devoid of activity; fold stimulation induced by PRL ([1]; stable clones, PRL 1 μg/ml, 24 hours): 8 fold; constitutive proliferation / survival (Ba/F3 cells [2]): hardly survived; apoptosis (Ba/F3 cells [3]; absence of PRL, 30 h): 50%; effect of PRL on apoptosis (Ba/F3 cells [3]; with PRL): PRL prevents this effect

B1: I76V: mutant human prolactin receptor wherein the Ile residue at position 76 is substituted by a Val residue (protein)
chain: QLPPGKPEIFKCRSPNKETFTCWWRPGTDGGLPTNYSLTYHREGETLMHECPDYITGGPNSCHFGKQYTSMWRTYVMMVNATNQMGSSFSDELYVDVTYIVQPDPPLELAVEVKQPEDRKPYLWIKWSPPTLIDLKTGWFTLLYEIRLKPEKAAEWEIHFAGQQTEFKILSLHPGQKYLVQVRCKPDHGYWSAWSPATFIQIPSDFTMNDTTVWISVAVLSAVICLIIVWAVALKGYSMVTCIFPPVPGPKIKGFDAHLLEKGKSEELLSALGCQDFPPTSDYEDLLVEYLEVDDSEDQHLMSVHSKEHPSQGMKPTYLDPDTDSGRGSCDSPSLLSEKCEEPQANPSTFYDPEVIEKPENPETTHTWDPQCISMEGKIPYFHAGGSKCSTWPLPQPSQHNPRSSYHNITDVCELAVGPAGAPATLLNEAGKDALKSSQTIKSREEGKATQQREVESFHSETDQDTPWLLPQEKTPFGSAKPLDYVEIHKVNKDGALSLLPKQRENSGKPKKPGTPENNKEYAKVSGVMDNNILVLVPDPHAKNVACFEESAKEAPPSLEQNQAEKALANFTATSSKCRLQLGGLDYLDPACFTHSFH
Q: Which Kd (hPRL) does the source give for B1 here?
A: 0.44 nM

Q: And the fold induction ([1]; transient transfections, normalized firefly/renilla luciferase)?
A: 5 fold

Q: And the “constitutive phosphorylation of PRLR” value (PRLR phosphorylation; absence of PRL stimulation)?
A: weaker

Q: And the “effect of PRL stimulation on PRLR phosphorylation” value (PRLR phosphorylation; with PRL stimulation)?
A: increased phosphorylation

Q: What about the “effect of PRL on proliferation” value (Ba/F3 cells [2]; 10 or 100 ng/ml hPRL) of the same molecule?
A: further increased

Q: And the “constitutive proliferation / survival” value (Ba/F3 cells [2])?
A: moderate but significant constitutive proliferation

Q: What about the “effect of PRL stimulation on phosphorylation of Stat5” value (Stat5; 0,5 μg/ml PRL) of the same molecule?
A: can be increased

Q: What about the “phosphorylation of Stat5” value (Stat5; absence of PRL stimulation) of the same molecule?
A: moderate

B2: De11-9-G129R-hPRL: pure PRLR antagonist, variant of human prolactin, which interferes with the mechanism of receptor activation by PRL (protein)
chain: RCQVTLRDLFDRAVVLSHYIHNLSSEMFSEFDKRYTHGRGFITKAINSCHTSSLATPEDKEQAQQMNQKDFLSLIVSILRSWNEPLYHLVTEVRGMQEAPEAILSKAVEIEEQTKRLLERMELIVSQVHPETKENEIYPVWSGLPSLQMADEESRLSAYYNLLHCLRRDSHKIDNYLKLLKCRIIHNNNC
Q: Which results are given for B2?
A: effect on basal proliferation of WT PRLR cells (WT PRLR cells): no effect; inhibition of constitutive activation (proliferation) of mutant I76V (mutant I76V; 10 μg/ml antagonist, no PRL): inhibited; affinity for mutants versus WT receptor (mutated PRLR): identical
